Source: patent US20080060092A1

Experiments:
[1] = biological target: FcγRIIIa on human effector cells of a FcγRIIIa Phe/Phe^158 homozygote donor (human) (UniProt P08637); assay: cell-based or functional assay
[2] = biological target: FcγRIIIa on human effector cells of a FcγRIIIa Phe/Val^158 heterozygote donor (human) (UniProt P08637); assay: cell-based or functional assay

Row | Substance | ADCC, maximal percent cell lysis of L540 target cells [1] | ADCC, maximal percent cell lysis of L540 target cells [2] | ADCC EC50, times lower than MDX-060 CHO [2] | ADCC EC50, times lower than MDX-060 LEX [2]
1 | MDX-060 CHO (antibody) | 15% | 31% | – | –
2 | MDX-060 LEX^Opt (antibody) | – | – | 5 fold | 3 fold
3 | MDX-060 LEX (antibody) | 27% | 31% | – | –
